{"source": "paper PMC3338861", "molecular_target": "purified BfpD assembly ATPase (enteropathogenic Escherichia coli (EPEC))", "data": [{"substance": "purified BfpD assembly ATPase (enzyme)", "values": [{"measurement": "stoichiometry N", "result": 6}]}]}
